PMC11869757 (Drug Design, Development and Therapy, 2025)

Molecular target: T1, CD122/IL-2Rβ with a His-tag (Sino Biological, 10696-H08B) (human, UniProt P14784)
T1 sequence: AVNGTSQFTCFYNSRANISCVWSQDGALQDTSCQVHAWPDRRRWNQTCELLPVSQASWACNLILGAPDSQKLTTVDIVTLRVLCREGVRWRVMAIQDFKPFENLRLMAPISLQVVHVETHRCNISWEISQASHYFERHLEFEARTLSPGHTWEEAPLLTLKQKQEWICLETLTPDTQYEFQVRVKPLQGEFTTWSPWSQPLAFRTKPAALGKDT
Assay: SPR

- Kd: 1710 nM
B1: SHR-1916, PEGylated interleukin-2 analogue (IL-2 N26Q/N29S/F42A/N71Q/L72G/C125A with a 20 kDa PEG at the N-terminus) (ligand)
chain: APTSSSTKKTQLQLEHLLLDLQMILQGISNYKNPKLTRMLTAKFYMPKKATELKHLQCLEEELKPLEEVLQGAQSKNFHLRPRDLISNINVIVLELKGSETTFMCEYADETATIVEFLNRWITFAQSIISTLT
modifications: 20 kDa PEG on the N-terminal amine group
